From US20060177894A1 (published 2006)

Tests used:
[1] = molecular target: T1, rat lutropin receptor (LHR) (rat, UniProt P16235 27-700); test: LHR binding assay
T1 construct: whole, on cells; also called LH receptor

[2] = molecular target: T1, rat lutropin receptor (LHR); test: cell-based or functional assay
[3] = molecular target: T1, rat lutropin receptor (LHR); test: inhibition of 125I-hCG binding to CHO cells with rat LHR; from IC50; native β-subunit analog
[4] = molecular target: T1, rat lutropin receptor (LHR); test: inhibition of 125I-hCG binding to CHO cells with rat LHR; from IC50; acid-stable hCGβ-S138C analog
[5] = molecular target: T1, rat lutropin receptor (LHR); test: LHR binding and signaling assays

T1 sequence (P16235 27-700): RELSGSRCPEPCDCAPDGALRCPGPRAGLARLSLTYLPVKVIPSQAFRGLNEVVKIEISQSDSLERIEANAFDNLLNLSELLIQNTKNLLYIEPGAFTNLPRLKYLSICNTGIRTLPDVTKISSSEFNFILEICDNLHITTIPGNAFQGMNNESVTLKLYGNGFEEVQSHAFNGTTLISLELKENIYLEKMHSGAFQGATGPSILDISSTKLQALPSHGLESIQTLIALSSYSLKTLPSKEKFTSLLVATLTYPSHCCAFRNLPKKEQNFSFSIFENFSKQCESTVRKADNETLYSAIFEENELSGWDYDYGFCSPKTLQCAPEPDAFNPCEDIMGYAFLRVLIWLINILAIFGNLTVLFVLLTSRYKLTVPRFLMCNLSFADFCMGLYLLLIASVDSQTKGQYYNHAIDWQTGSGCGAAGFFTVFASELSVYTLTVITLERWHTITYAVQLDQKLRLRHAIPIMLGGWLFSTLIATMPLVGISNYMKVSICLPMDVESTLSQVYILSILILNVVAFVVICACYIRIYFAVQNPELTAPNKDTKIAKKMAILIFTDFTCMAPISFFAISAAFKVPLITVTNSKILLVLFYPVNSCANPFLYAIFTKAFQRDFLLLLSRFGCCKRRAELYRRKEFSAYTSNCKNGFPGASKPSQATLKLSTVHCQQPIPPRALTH

| Signal transduction potency (cAMP accumulation), acid-stable analog [2] | Receptor-Binding potency (percent hCG) [4] | Binder | other results |
| --- | --- | --- | --- |
| 2.4 % of hCG | 4.1 % of hCG | αM47C + hCGβ-S138C (ligand, mature; disulfide αCys47-βCys138) chain 1: not shown chain 2: SKEPLRPRCRPINATLAVEKEGCPVCITVNTTICAGYCPTMTRVLQGVLPALPQVVCNYRDVRFESIRLPGCPRGVNPVVSYAVALSCQCALCRRSTTDCGGPKDHPLTCDDPRFQDSSSSKAPPPSLPSPSRLPGPCDTPILPQ |  |
| 99 % of hCG | 71 % of hCG | αV49C + hCGβ-S138C (ligand, mature; disulfide αCys49-βCys138) chain 1: not shown chain 2: SKEPLRPRCRPINATLAVEKEGCPVCITVNTTICAGYCPTMTRVLQGVLPALPQVVCNYRDVRFESIRLPGCPRGVNPVVSYAVALSCQCALCRRSTTDCGGPKDHPLTCDDPRFQDSSSSKAPPPSLPSPSRLPGPCDTPILPQ |  |

Second part, the binder before the results:

| Binder | Signal transduction potency (cAMP accumulation), acid-stable analog [2] | Receptor-Binding potency (percent hCG) [4] | other results |
| --- | --- | --- | --- |
| hCG-αK91E (ligand, mature; heterodimer from COS-7 medium; also called αK91E+hCGβ) chain 1: not shown chain 2: SKEPLRPRCRPINATLAVEKEGCPVCITVNTTICAGYCPTMTRVLQGVLPALPQVVCNYRDVRFESIRLPGCPRGVNPVVSYAVALSCQCALCRRSTTDCGGPKDHPLTCDDPRFQDSSSSKAPPPSLPSPSRLPGPSDTPILPQ |  |  | fold lower affinity than hCG [1]: ~10 fold; Signal Transduction potency (cAMP accumulation) [2]: 1.1 % of hCG; Receptor-Binding potency (percent hCG) [3]: 4.3 % of hCG |
| αL48C + hCGβ-S138C (ligand, mature; disulfide αCys48-βCys138; also called hCGβS138C+αL48C) chain 1: not shown chain 2: SKEPLRPRCRPINATLAVEKEGCPVCITVNTTICAGYCPTMTRVLQGVLPALPQVVCNYRDVRFESIRLPGCPRGVNPVVSYAVALSCQCALCRRSTTDCGGPKDHPLTCDDPRFQDSSSSKAPPPSLPSPSRLPGPCDTPILPQ | 99 % of hCG | 66 % of hCG |  |
| αR42C + hCGβ-S138C (ligand, mature; disulfide αCys42-βCys138) chain 1: not shown chain 2: SKEPLRPRCRPINATLAVEKEGCPVCITVNTTICAGYCPTMTRVLQGVLPALPQVVCNYRDVRFESIRLPGCPRGVNPVVSYAVALSCQCALCRRSTTDCGGPKDHPLTCDDPRFQDSSSSKAPPPSLPSPSRLPGPCDTPILPQ | 332 % of hCG | 327 % of hCG |  |
| αS43C + hCGβ-S138C (ligand, mature; disulfide αCys43-βCys138) chain 1: not shown chain 2: SKEPLRPRCRPINATLAVEKEGCPVCITVNTTICAGYCPTMTRVLQGVLPALPQVVCNYRDVRFESIRLPGCPRGVNPVVSYAVALSCQCALCRRSTTDCGGPKDHPLTCDDPRFQDSSSSKAPPPSLPSPSRLPGPCDTPILPQ | 43 % of hCG | 17 % of hCG |  |
| αS92C + hCGβ-S138C (ligand, mature; disulfide αCys92-βCys138) chain 1: not shown chain 2: SKEPLRPRCRPINATLAVEKEGCPVCITVNTTICAGYCPTMTRVLQGVLPALPQVVCNYRDVRFESIRLPGCPRGVNPVVSYAVALSCQCALCRRSTTDCGGPKDHPLTCDDPRFQDSSSSKAPPPSLPSPSRLPGPCDTPILPQ | 13 % of hCG | 28 % of hCG |  |
| αT46C + hCGβ-S138C (ligand, mature; disulfide αCys46-βCys138) chain 1: not shown chain 2: SKEPLRPRCRPINATLAVEKEGCPVCITVNTTICAGYCPTMTRVLQGVLPALPQVVCNYRDVRFESIRLPGCPRGVNPVVSYAVALSCQCALCRRSTTDCGGPKDHPLTCDDPRFQDSSSSKAPPPSLPSPSRLPGPCDTPILPQ | 52 % of hCG | 50 % of hCG |  |
| hCG-αCTδ116/135,138C + hCG β-subunit analog with cysteine in place of Arg95 (ligand, also called knob at β-subunit residue 95) chain 1: not shown chain 2: SKEPLRPRCRPINATLAVEKEGCPVCITVNTTICAGYCPTMTRVLQGVLPALPQVVCNYRDVRFESIRLPGCPRGVPNVVSYAVALSCQCALCRCSTTDCGGPKDHPLTCDDPRFQDSSSSKAPPPSLPSPSRLPGPSDTPILPQ |  |  | binding result [5]: no binding |
| hCG-αCTδ116/135,138C + hCG β-subunit analog with cysteine in place of Asp99 (ligand, also called knob at β-subunit residue 99) chain 1: not shown chain 2: SKEPLRPRCRPINATLAVEKEGCPVCITVNTTICAGYCPTMTRVLQGVLPALPQVVCNYRDVRFESIRLPGCPRGVPNVVSYAVALSCQCALCRRSTTCCGGPKDHPLTCDDPRFQDSSSSKAPPPSLPSPSRLPGPSDTPILPQ |  |  | binding result [5]: no binding |
